Assay [1] addresses T1, full length cyno SIRPα stably expressed on CHOK1 cells (cynomolgus monkey, UniProt A0A2K5VYQ9 31-507).
T1 construct: whole, on cells; also called CHOK1-cyno SIRPα-2A2 cells; CHOK1-cyno SIRPα
T1 sequence: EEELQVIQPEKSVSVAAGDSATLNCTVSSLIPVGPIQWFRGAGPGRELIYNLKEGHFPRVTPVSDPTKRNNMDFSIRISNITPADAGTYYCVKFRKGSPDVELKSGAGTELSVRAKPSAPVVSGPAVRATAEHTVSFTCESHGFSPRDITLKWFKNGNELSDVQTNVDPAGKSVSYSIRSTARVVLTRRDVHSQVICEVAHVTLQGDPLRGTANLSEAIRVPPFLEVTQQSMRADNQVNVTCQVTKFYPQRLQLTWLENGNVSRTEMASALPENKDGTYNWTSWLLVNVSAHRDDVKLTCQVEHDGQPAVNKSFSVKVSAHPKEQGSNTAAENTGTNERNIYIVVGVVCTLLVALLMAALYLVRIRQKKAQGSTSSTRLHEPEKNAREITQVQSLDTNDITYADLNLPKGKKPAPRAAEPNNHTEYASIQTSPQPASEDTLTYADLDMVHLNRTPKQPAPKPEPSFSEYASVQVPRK
The assay is described as follows: FACS on CHOK1 cells. Summed up: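 Antibodies bound to 2×10⁵ CHOK1 cells stably expressing full-length SIRPα, 1 h at 4 °C, then fluorescent anti-mouse or anti-human IgG secondary, 1 h at 4 °C. EC50 derived from geometric median fluorescence intensity.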

Assay [2] addresses 6×His tagged human SIRPα v2 ECD recombinant protein (human). The assay is described as follows: SPR (Biacore), antibody captured. The procedure:
(§1) Anti-SIRPα chimeric antibodies were characterized for binding affinity against human SIRPα v1, human SIRPα v2 and C57BL/6 mouse SIRPα using Biacore (GE). Briefly the antibodies to be tested were captured to CM5 chip (GE) using Human Antibody Capture Kit (GE). The antigens of 6×His tagged human SIRPα v1, human SIRPα v2 and C57BL/6 mouse SIRPα ECD recombinant proteins were serially diluted for multiple doses and injected at 30 μl/min for 180 s. Buffer flow was maintained for dissociation of 400 s. 3 M MgCl₂ was used for chip regeneration. The association and dissociation curves were fit with 1:1 binding model, and the Ka/Kd/KD values for each antibody were calculated.

Assay [3] has as its target T2, 6×His tagged human SIRPα v1 ECD recombinant protein (human, UniProt P78324 31-373).
T2 construct: extracellular domain; bought; also called hSIRPα V1 (SPR antigen)
The assay is described as follows: SPR (Biacore), antibody captured. On the procedure: as §1

Assay [4] addresses T3, 6×His tagged C57BL/6 mouse SIRPα ECD recombinant protein (mouse (C57BL/6), UniProt P97797 32-373).
T3 construct: extracellular domain; bought; also called mSIRPα (C57BL/6); mouse SIRPα (C57BL/6) ECD
T3 sequence: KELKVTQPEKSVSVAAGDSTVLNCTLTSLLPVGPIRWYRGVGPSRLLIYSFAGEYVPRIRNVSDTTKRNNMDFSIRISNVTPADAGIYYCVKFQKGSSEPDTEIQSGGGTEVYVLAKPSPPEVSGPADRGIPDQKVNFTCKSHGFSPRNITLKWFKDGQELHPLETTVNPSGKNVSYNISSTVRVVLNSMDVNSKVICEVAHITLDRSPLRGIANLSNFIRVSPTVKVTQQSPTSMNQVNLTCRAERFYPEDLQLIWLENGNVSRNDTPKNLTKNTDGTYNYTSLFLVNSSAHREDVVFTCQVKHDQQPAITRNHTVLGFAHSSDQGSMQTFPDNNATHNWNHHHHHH
The assay is described as follows: SPR (Biacore), antibody captured. The procedure:
as §1
(In SPR one partner is held on a chip, and binding of the other changes the refractive index at the surface.)

The source of these data is patent US20210347908A1 (ELPISCIENCE SUZHOU BIOPHARMA, published 2021).

Chain of 6×His tagged human SIRPα v2 ECD recombinant protein (human) (chain, as listed by the source): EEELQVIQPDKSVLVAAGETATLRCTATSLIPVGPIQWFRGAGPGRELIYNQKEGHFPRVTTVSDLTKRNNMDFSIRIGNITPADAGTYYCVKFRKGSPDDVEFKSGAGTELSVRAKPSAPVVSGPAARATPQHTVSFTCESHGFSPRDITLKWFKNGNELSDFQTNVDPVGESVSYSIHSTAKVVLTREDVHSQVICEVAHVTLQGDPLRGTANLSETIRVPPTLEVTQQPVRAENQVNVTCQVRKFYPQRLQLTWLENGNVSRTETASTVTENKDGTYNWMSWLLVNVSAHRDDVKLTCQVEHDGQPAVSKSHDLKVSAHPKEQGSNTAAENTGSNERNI
T2 sequence (P78324 other isoform, or with tags, fused parts or gaps): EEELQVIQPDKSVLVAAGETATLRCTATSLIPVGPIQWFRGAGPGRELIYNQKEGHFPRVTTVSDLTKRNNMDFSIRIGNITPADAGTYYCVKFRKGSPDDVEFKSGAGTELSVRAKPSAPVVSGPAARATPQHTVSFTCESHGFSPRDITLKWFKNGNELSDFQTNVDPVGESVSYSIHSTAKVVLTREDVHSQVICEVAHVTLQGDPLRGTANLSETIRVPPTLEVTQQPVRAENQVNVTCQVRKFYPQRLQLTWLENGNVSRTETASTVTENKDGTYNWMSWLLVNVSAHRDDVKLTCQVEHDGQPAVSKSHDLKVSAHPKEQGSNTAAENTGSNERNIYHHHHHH

B1: chimeric antibody 022c (antibody, V domains shown)
VH: QIQLVQSGPELKKPGETVKISCKASGYTFTDYAMHWVKQAPGKGLKWMGWKNTETGESTYAEDFKGRFAFFLETSASTAYLQINNVKNEDTATYFCARGGYGSNYVMDYWGQGTSVIVSS
VL: DIQMTQSSSSFSVSLGDRVTITCKASEDIYNRLAWYQQKPGNAPRLLISGATSLETGVPSRFSGSGSGKDYTLSITSLQTEDVATYYCQQYWNSPRTFGGGTKLEIK
Regarding B1, the “MFI at 10 nM” value in assay [1] came to 23500 MFI. In assay [2], the Kd (as a rule, the free concentration of one partner at which half of the binding sites on the other are occupied at equilibrium, for simple one-to-one binding) was 25.6 nM; the koff (commonly a measure of how fast the partners let go of each other) is 0.00144 s⁻¹; the kon (usually a measure of how fast the partners come together) came out at 56100 M⁻¹ s⁻¹. For the same molecule, in assay [3], the Kd was determined as 5.9 nM, the koff was determined as 0.00074 s⁻¹ and the kon turned out to be 125000 M⁻¹ s⁻¹. Besides, the binding result in assay [4] is on record as “no binding”.
